One series in a line: in vivo. Also noted: species or system mice. The conditions noted are these: CB17 SCID, mouse, total radioactivity.
Series [1] is classed as physicochemical. The conditions noted are these: pH 7.4.
Where [2] appears, read: tumor/organ ratio Heart (myocard).
Where [3] appears, read: tumor/organ ratio Large intestine (empty).
The mark [4] stands for this setting: tumor/organ ratio Small intestine (empty).
[5] abbreviates: tumor/organ ratio Stomach (empty).

From article PMC10718521, “Complexity of αvβ6-integrin targeting RGD peptide trimers: emergence of non-specific binding by synergistic interaction” (RSC Medicinal Chemistry, 2023) come the findings set out here.

The structures appear in SMILES notation.

Broadly, the tissue uptake is the percentage of the injected dose found per gram of tissue. In general, logD refers to lipophilicity at a set pH, counting ionised and neutral species. A high value points to higher lipophilicity. On to `CC(C)C[C@@H]1NC(=O)[C@H](CC(=O)O)NC(=O)CNC(=O)[C@H](CCCNC(=N)N)NC(=O)[C@H](Cc2ccc(O)cc2)NC(=O)[C@H](CCCCNC(=O)CCc2cn(CCCNC(=O)CCP(=O)(O)CN3CCN(CP(=O)(O)CCC(=O)NCCCn4cc(CCC(=O)NCCCC[C@H]5C(=O)N[C@@H](Cc6ccc(O)cc6)C(=O)N[C@@H](CCCNC(=N)N)C(=O)NCC(=O)N[C@@H](CC(=O)O)C(=O)N[C@@H](CC(C)C)C(=O)N[C@@H](C)C(=O)N[C@@H](Cc6ccccc6)C(=O)N6CCC[C@@H]6C(=O)N5C)nn4)CCN(CP(=O)(O)CCC(=O)NCCCn4cc(CCC(=O)NCCCC[C@H]5C(=O)N[C@@H](Cc6ccc(O)cc6)C(=O)N[C@@H](CCCNC(=N)N)C(=O)NCC(=O)N[C@@H](CC(=O)O)C(=O)N[C@@H](CC(C)C)C(=O)N[C@@H](C)C(=O)N[C@@H](Cc6ccccc6)C(=O)N6CCC[C@@H]6C(=O)N5C)nn4)CC3)nn2)N(C)C(=O)[C@H]2CCCN2C(=O)[C@H](Cc2ccccc2)NC(=O)[C@H](C)NC1=O` (68Ga complex, metal not drawn) [Y3Y], for which the tissue uptake at 1.5 h in the series “in vivo” (Adrenals uptake) was determined as 0.81 ± 0.41 %ID/g; in “in vivo” (Blood uptake), 1.13 ± 0.25 %ID/g; in the series “in vivo” (Heart (myocard) uptake) it was 0.66 ± 0.16 %ID/g; in “in vivo” (Kidneys uptake), 72.6 ± 5.25 %ID/g; in “in vivo” (Large intestine (empty) uptake), 3.94 ± 1.85 %ID/g; in “in vivo” (Liver uptake), 1.23 ± 0.19 %ID/g. The tissue uptake at 1.5 h in the series “in vivo” (Lung uptake) amounted to 4.96 ± 0.48 %ID/g; in the series “in vivo” (Muscle uptake), 0.51 ± 0.11 %ID/g; in “in vivo” (Pancreas uptake), 0.33 ± 0.07 %ID/g; in “in vivo” (Small intestine (empty) uptake), 1.69 ± 0.2 %ID/g; in the series “in vivo” (Spleen uptake) it was 3.82 ± 0.82 %ID/g; in the series “in vivo” (Stomach (empty) uptake), 4.03 ± 1.36 %ID/g. The tissue uptake at 1.5 h in “in vivo” (Tumor H2009 uptake) worked out at 5.92 ± 2.07 %ID/g. For the same molecule, the tissue to tissue ratio at 1.5 h in the series “in vivo” (tumor/organ ratio Adrenals) amounted to 6.7 ± 3; in the series “in vivo” (tumor/organ ratio Blood), 4.9 ± 0.5; in the series “in vivo” (setting [2]), 8.5 ± 1.1; in “in vivo” (tumor/organ ratio Kidneys) it was 0.1; in the series “in vivo” (setting [3]), 1.8 ± 1.1; in “in vivo” (tumor/organ ratio Liver), 4.4 ± 0.7. The tissue to tissue ratio at 1.5 h in the series “in vivo” (tumor/organ ratio Lung) was found to be 1 ± 0.2; in “in vivo” (tumor/organ ratio Muscle) it was 10.7 ± 1.1; in the series “in vivo” (tumor/organ ratio Pancreas), 17 ± 1.4; in the series “in vivo” (setting [4]) it was 3.2 ± 0.6; in the series “in vivo” (tumor/organ ratio Spleen) it was 1.4 ± 0.2; in “in vivo” (setting [5]), 1.5 ± 0.7. In series [1], the logD is -1.7 ± 0.1.
Regarding `CC(C)C[C@@H]1NC(=O)[C@H](CC(=O)O)NC(=O)CNC(=O)[C@H](CCCNC(=N)N)NC(=O)[C@H](Cc2ccccc2)NC(=O)[C@H](CCCCNC(=O)CCc2cn(CCCNC(=O)CCP(=O)(O)CN3CCN(CP(=O)(O)CCC(=O)NCCCn4cc(CCC(=O)NCCCC[C@H]5C(=O)N[C@@H](Cc6ccccc6)C(=O)N[C@@H](CCCNC(=N)N)C(=O)NCC(=O)N[C@@H](CC(=O)O)C(=O)N[C@@H](CC(C)C)C(=O)N[C@@H](C)C(=O)N[C@@H](Cc6ccc(O)cc6)C(=O)N6CCC[C@@H]6C(=O)N5C)nn4)CCN(CP(=O)(O)CCC(=O)NCCCn4cc(CCC(=O)NCCCC[C@H]5C(=O)N[C@@H](Cc6ccccc6)C(=O)N[C@@H](CCCNC(=N)N)C(=O)NCC(=O)N[C@@H](CC(=O)O)C(=O)N[C@@H](CC(C)C)C(=O)N[C@@H](C)C(=O)N[C@@H](Cc6ccc(O)cc6)C(=O)N6CCC[C@@H]6C(=O)N5C)nn4)CC3)nn2)N(C)C(=O)[C@H]2CCCN2C(=O)[C@H](Cc2ccccc2)NC(=O)[C@H](C)NC1=O` (68Ga complex, metal not drawn) [Y2F], the tissue uptake at 1.5 h was 0.84 ± 0.07 %ID/g in “in vivo” (Adrenals uptake); 1.62 ± 0.2 %ID/g in the series “in vivo” (Blood uptake); 0.76 ± 0.06 %ID/g in “in vivo” (Heart (myocard) uptake); 107 ± 7.49 %ID/g in the series “in vivo” (Kidneys uptake); 3.96 ± 1.16 %ID/g in “in vivo” (Large intestine (empty) uptake); 2.09 ± 0.17 %ID/g in the series “in vivo” (Liver uptake). The tissue uptake at 1.5 h in the series “in vivo” (Lung uptake) was 5.62 ± 1.34 %ID/g; in the series “in vivo” (Muscle uptake), 0.66 ± 0.12 %ID/g; in the series “in vivo” (Pancreas uptake) it was 0.38 ± 0.04 %ID/g; in “in vivo” (Small intestine (empty) uptake) it was 2.51 ± 0.5 %ID/g; in the series “in vivo” (Spleen uptake), 3.84 ± 1.14 %ID/g; in the series “in vivo” (Stomach (empty) uptake), 6.99 ± 3.4 %ID/g. In “in vivo” (Tumor H2009 uptake), the tissue uptake at 1.5 h was 7.99 ± 1.62 %ID/g. The tissue to tissue ratio at 1.5 h in “in vivo” (tumor/organ ratio Adrenals) turned out to be 9.6 ± 2.2; in “in vivo” (tumor/organ ratio Blood) it was 4.9 ± 1; in “in vivo” (setting [2]), 10.6 ± 2; in the series “in vivo” (tumor/organ ratio Kidneys), 0.1; in the series “in vivo” (setting [3]), 2.1 ± 0.5; in “in vivo” (tumor/organ ratio Liver), 3.8 ± 0.9. The tissue to tissue ratio at 1.5 h in the series “in vivo” (tumor/organ ratio Lung) came out at 1.4 ± 0.2; in the series “in vivo” (tumor/organ ratio Muscle), 12.2 ± 1.5; in “in vivo” (tumor/organ ratio Pancreas), 20.8 ± 3.9; in “in vivo” (setting [4]), 3.2 ± 0.4; in “in vivo” (tumor/organ ratio Spleen) it was 2.2 ± 0.5; in “in vivo” (setting [5]), 1.3 ± 0.3. The “log D7.4” value in series [1] is reported as −1.4 to −1.5. In addition, in series [1], the logD was -1.5 ± 0.1.
Regarding `CC(C)C[C@@H]1NC(=O)[C@H](CC(=O)O)NC(=O)CNC(=O)[C@H](CCCNC(=N)N)NC(=O)[C@H](Cc2ccccc2)NC(=O)[C@H](CCCCNC(=O)CCc2cn(CCCNC(=O)CCP(=O)(O)CN3CCN(CP(=O)(O)CCC(=O)NCCCn4cc(CCC(=O)NCCCC[C@H]5C(=O)N[C@@H](Cc6ccccc6)C(=O)N[C@@H](CCCNC(=N)N)C(=O)NCC(=O)N[C@@H](CC(=O)O)C(=O)N[C@@H](CC(C)C)C(=O)N[C@@H](C)C(=O)N[C@@H](Cc6ccccc6)C(=O)N6CCC[C@@H]6C(=O)N5C)nn4)CCN(CP(=O)(O)CCC(=O)NCCCn4cc(CCC(=O)NCCCC[C@H]5C(=O)N[C@@H](Cc6ccccc6)C(=O)N[C@@H](CCCNC(=N)N)C(=O)NCC(=O)N[C@@H](CC(=O)O)C(=O)N[C@@H](CC(C)C)C(=O)N[C@@H](C)C(=O)N[C@@H](Cc6ccccc6)C(=O)N6CCC[C@@H]6C(=O)N5C)nn4)CC3)nn2)N(C)C(=O)[C@H]2CCCN2C(=O)[C@H](Cc2ccccc2)NC(=O)[C@H](C)NC1=O` (68Ga complex, metal not drawn) [Y0], the tissue uptake at 1.5 h amounted to 2.4 ± 0.38 %ID/g in the series “in vivo” (Adrenals uptake); 4.01 ± 0.74 %ID/g in “in vivo” (Blood uptake); 2.13 ± 0.42 %ID/g in the series “in vivo” (Heart (myocard) uptake); 90.7 ± 6.7 %ID/g in “in vivo” (Kidneys uptake); 5.74 ± 1.36 %ID/g in “in vivo” (Large intestine (empty) uptake); 7.55 ± 0.78 %ID/g in “in vivo” (Liver uptake). The tissue uptake at 1.5 h in the series “in vivo” (Lung uptake) is 16.9 ± 5.34 %ID/g; in “in vivo” (Muscle uptake), 1.1 ± 0.22 %ID/g; in “in vivo” (Pancreas uptake), 0.91 ± 0.22 %ID/g; in the series “in vivo” (Small intestine (empty) uptake), 4.2 ± 1.07 %ID/g; in “in vivo” (Spleen uptake), 5.21 ± 1.05 %ID/g; in “in vivo” (Stomach (empty) uptake), 10.3 ± 1.62 %ID/g. Also, the tissue uptake at 1.5 h in “in vivo” (Tumor H2009 uptake) was 8.73 ± 0.81 %ID/g. Besides, the “log D7.4” value in series [1] is −1.4 to −1.5. The molecule also showed a logD in series [1] of -1.5 ± 0.1.
As to `CC(C)C[C@@H]1NC(=O)[C@H](CC(=O)O)NC(=O)CNC(=O)[C@H](CCCNC(=N)N)NC(=O)[C@H](Cc2ccccc2)NC(=O)[C@H](CCCCNC(=O)CCc2cn(CCCNC(=O)CCP(=O)(O)CN3CCN(CP(=O)(O)CCC(=O)NCCCn4cc(CCC(=O)NCCCC[C@H]5C(=O)N[C@@H](Cc6ccccc6)C(=O)N[C@@H](CCCNC(=N)N)C(=O)NCC(=O)N[C@@H](CC(=O)O)C(=O)N[C@@H](CC(C)C)C(=O)N[C@@H](C)C(=O)N[C@@H](Cc6ccccc6)C(=O)N6CCC[C@@H]6C(=O)N5C)nn4)CCN(CP(=O)(O)CCC(=O)NCCCn4cc(CCC(=O)NCCCC[C@H]5C(=O)N[C@@H](Cc6ccc(O)cc6)C(=O)N[C@@H](CCCNC(=N)N)C(=O)NCC(=O)N[C@@H](CC(=O)O)C(=O)N[C@@H](CC(C)C)C(=O)N[C@@H](C)C(=O)N[C@@H](Cc6ccccc6)C(=O)N6CCC[C@@H]6C(=O)N5C)nn4)CC3)nn2)N(C)C(=O)[C@H]2CCCN2C(=O)[C@H](Cc2ccccc2)NC(=O)[C@H](C)NC1=O` (68Ga complex, metal not drawn) [Y1Y], the tissue uptake at 1.5 h was found to be 1.57 ± 0.41 %ID/g in “in vivo” (Adrenals uptake); 2.54 ± 0.37 %ID/g in “in vivo” (Blood uptake); 1.54 ± 0.61 %ID/g in “in vivo” (Heart (myocard) uptake); 91.2 ± 9.95 %ID/g in “in vivo” (Kidneys uptake); 4.1 ± 0.84 %ID/g in the series “in vivo” (Large intestine (empty) uptake); 4.39 ± 0.46 %ID/g in the series “in vivo” (Liver uptake). The tissue uptake at 1.5 h in the series “in vivo” (Lung uptake) worked out at 6.76 ± 2.02 %ID/g; in the series “in vivo” (Muscle uptake), 0.75 ± 0.17 %ID/g; in “in vivo” (Pancreas uptake) it was 0.64 ± 0.11 %ID/g; in “in vivo” (Small intestine (empty) uptake) it was 2.72 ± 0.36 %ID/g; in “in vivo” (Spleen uptake), 3.85 ± 0.86 %ID/g; in “in vivo” (Stomach (empty) uptake) it was 6.78 ± 0.72 %ID/g. The tissue uptake at 1.5 h in the series “in vivo” (Tumor H2009 uptake) amounted to 8.16 ± 2.01 %ID/g. Besides, the tissue to tissue ratio at 1.5 h in “in vivo” (tumor/organ ratio Adrenals) was 5.3 ± 1.5; in “in vivo” (tumor/organ ratio Blood), 3.2 ± 0.7; in “in vivo” (setting [2]) it was 5.7 ± 2; in the series “in vivo” (tumor/organ ratio Kidneys), 0.1; in the series “in vivo” (setting [3]), 2 ± 0.5; in “in vivo” (tumor/organ ratio Liver), 1.8 ± 0.3. Further, the tissue to tissue ratio at 1.5 h in “in vivo” (tumor/organ ratio Lung) amounted to 1.2 ± 0.2; in “in vivo” (tumor/organ ratio Muscle), 11.2 ± 3.4; in the series “in vivo” (tumor/organ ratio Pancreas), 12.7 ± 2.9; in “in vivo” (setting [4]), 3 ± 0.7; in “in vivo” (tumor/organ ratio Spleen) it was 2.2 ± 0.5; in “in vivo” (setting [5]) it was 1.2 ± 0.2. Further, the “log D7.4” value in series [1] was −1.4 to −1.5. The molecule also came in with a logD in series [1] of -1.5 ± 0.1.
